Substitutions are numbered along the chain they refer to. Numbers in names are those of the source.
B1: target 1 insA 3' of 17,insA 3' of 13 (mixed)
RNA 1: CACCCGUGCAAAAAUGCAGGGGUCUAAAACUGAGCGGAUAACCUCUCUAUGG
RNA 2: GGGAAUGGAUCCACAUCUACGAAUUCGUACCAUAGAAGAGAGUUAUCCGCUCACCGAGAUCGGAAGAGCACACGU
B2: target 1 A9G,A14U (mixed)
RNA 1: B1 RNA 1
RNA 2: GGGAAUGGAUCCACAUCUACGAAUUCGUACCAUAGAGUGGUUGUCCGCUCACCGAGAUCGGAAGAGCACACGU
B3: target 1 insA 3' of 22,insU 3' of 1 (mixed)
RNA 1: B1 RNA 1
RNA 2: GGGAAUGGAUCCACAUCUACGAAUUCGUACACAUAGAGAGGUUAUCCGCUCAUCCGAGAUCGGAAGAGCACACGU
B4: target 1 insC 3' of 12,insU 3' of 12 (mixed)
RNA 1: B1 RNA 1
RNA 2: B1 RNA 2 with A37G, G38A, A39G, A41C, G42U
B5: target 1 insA 3' of 12,insU 3' of 7 (mixed)
RNA 1: B1 RNA 1
RNA 2: B1 RNA 2 with A37G, G38A, A39G, G42U, U44A, A45U, U46C, C47U
B6: target 1 insU 3' of 12,insU 3' of 7 (mixed)
RNA 1: B1 RNA 1
RNA 2: B1 RNA 2 with A37G, G38A, A39G, A41U, G42U, U44A, A45U, U46C, C47U
B7: target 1 del7,del18 (mixed)
RNA 1: B1 RNA 1
RNA 2: GGGAAUGGAUCCACAUCUACGAAUUCGUACCAUGAGAGGUUAUCGCUCACCGAGAUCGGAAGAGCACACGU
B8: target 1 insC 3' of 11,insA 3' of 3 (mixed)
RNA 1: B1 RNA 1
RNA 2: GGGAAUGGAUCCACAUCUACGAAUUCGUACCAUAGAGAGGUCUAUCCGCUACACCGAGAUCGGAAGAGCACACGU
B9: target 1 G15U (mixed)
RNA 1: B1 RNA 1
RNA 2: B2 RNA 2 with G37U, U38A, G43A
B10: target 1 G15C (mixed)
RNA 1: B1 RNA 1
RNA 2: B2 RNA 2 with G37C, U38A, G43A
B11: target 1 insG 3' of 19,insC 3' of 13 (mixed)
RNA 1: B1 RNA 1
RNA 2: B1 RNA 2 with A34G, G35A, A36G, A41C
B12: target 1 insA 3' of 11,insA 3' of 2 (mixed)
RNA 1: B1 RNA 1
RNA 2: B8 RNA 2 with C42A, A51C, C52A
B13: target 1 del4,del15 (mixed)
RNA 1: B1 RNA 1
RNA 2: B7 RNA 2 with G34A, A35G, G36A, G45C, C46G
B14: target 1 insA 3' of 21,insG 3' of 4 (mixed)
RNA 1: B1 RNA 1
RNA 2: B3 RNA 2 with A31C, C32A, U50G, C51U, A52C, U53A
B15: target 1 insC 3' of 5,insU 3' of 4 (mixed)
RNA 1: B1 RNA 1
RNA 2: B8 RNA 2 with C42U, U43A, A44U, U45C, C47G, G48C, A51U
B16: target 1 A14G,U19A (mixed)
RNA 1: B1 RNA 1
RNA 2: B2 RNA 2 with U33A, U38G, G43A
B17: target 1 A1G,G15U (mixed)
RNA 1: B1 RNA 1
RNA 2: B2 RNA 2 with G37U, U38A, G43A, A51G
B18: target 1 insU 3' of 20,insA 3' of 11 (mixed)
RNA 1: B1 RNA 1
RNA 2: B1 RNA 2 with A34U, G35A, A36G, A41G, G42U, U43A
B19: target 1 A18U,U19A (mixed)
RNA 1: B1 RNA 1
RNA 2: B2 RNA 2 with U33A, A34U, U38A, G43A
B20: target 1 C7A,U10G (mixed)
RNA 1: B1 RNA 1
RNA 2: B2 RNA 2 with U38A, U42G, G43A, C45A
B21: target 1 A9G,G12C (mixed)
RNA 1: B1 RNA 1
RNA 2: B2 RNA 2 with U38A, G40C
B22: target 1 insC 3' of 19,insU 3' of 12 (mixed)
RNA 1: B1 RNA 1
RNA 2: B1 RNA 2 with A34C, G35A, A36G, A41G, G42U
B23: target 1 insC 3' of 13,insU 3' of 4 (mixed)
RNA 1: B1 RNA 1
RNA 2: B8 RNA 2 with G40C, U41G, C42U, A51U
B24: target 1 C4A,U19A (mixed)
RNA 1: B1 RNA 1
RNA 2: B2 RNA 2 with U33A, U38A, G43A, C48A
B25: target 1 insA 3' of 4,insG 3' of 1 (mixed)
RNA 1: B1 RNA 1
RNA 2: GGGAAUGGAUCCACAUCUACGAAUUCGUACCAUAGAGAGGUUAUCCGCAUCAGCCGAGAUCGGAAGAGCACACGU
B26: target 1 A16G,C22U (mixed)
RNA 1: B1 RNA 1
RNA 2: B2 RNA 2 with C30U, A36G, U38A, G43A
B27: target 1 insU 3' of 21,insC 3' of 18 (mixed)
RNA 1: B1 RNA 1
RNA 2: GGGAAUGGAUCCACAUCUACGAAUUCGUACCUAUACGAGAGGUUAUCCGCUCACCGAGAUCGGAAGAGCACACGU
B28: target 1 insC 3' of 13,insA 3' of 4 (mixed)
RNA 1: B1 RNA 1
RNA 2: B8 RNA 2 with G40C, U41G, C42U, U50A, A51U
B29: target 1 insC 3' of 22,insC 3' of 19 (mixed)
RNA 1: B1 RNA 1
RNA 2: B27 RNA 2 with U32C, A35C, C36A
B30: target 1 C4G,U11A (mixed)
RNA 1: B1 RNA 1
RNA 2: B2 RNA 2 with U38A, U41A, G43A, C48G
B31: target 1 U19G,C22U (mixed)
RNA 1: B1 RNA 1
RNA 2: B2 RNA 2 with C30U, U33G, U38A, G43A
B32: target 1 insG 3' of 18,insG 3' of 11 (mixed)
RNA 1: B1 RNA 1
RNA 2: B1 RNA 2 with A36G, A41G, G42U, U43G
B33: target 1 U8G,U10C (mixed)
RNA 1: B1 RNA 1
RNA 2: B2 RNA 2 with U38A, U42C, G43A, U44G

Molecular target: T1, EsCas13d, nuclease-dead (Eubacterium siraeum, UniProt B0MS50, R295A;H300A;R849A;H854A)
T1 sequence: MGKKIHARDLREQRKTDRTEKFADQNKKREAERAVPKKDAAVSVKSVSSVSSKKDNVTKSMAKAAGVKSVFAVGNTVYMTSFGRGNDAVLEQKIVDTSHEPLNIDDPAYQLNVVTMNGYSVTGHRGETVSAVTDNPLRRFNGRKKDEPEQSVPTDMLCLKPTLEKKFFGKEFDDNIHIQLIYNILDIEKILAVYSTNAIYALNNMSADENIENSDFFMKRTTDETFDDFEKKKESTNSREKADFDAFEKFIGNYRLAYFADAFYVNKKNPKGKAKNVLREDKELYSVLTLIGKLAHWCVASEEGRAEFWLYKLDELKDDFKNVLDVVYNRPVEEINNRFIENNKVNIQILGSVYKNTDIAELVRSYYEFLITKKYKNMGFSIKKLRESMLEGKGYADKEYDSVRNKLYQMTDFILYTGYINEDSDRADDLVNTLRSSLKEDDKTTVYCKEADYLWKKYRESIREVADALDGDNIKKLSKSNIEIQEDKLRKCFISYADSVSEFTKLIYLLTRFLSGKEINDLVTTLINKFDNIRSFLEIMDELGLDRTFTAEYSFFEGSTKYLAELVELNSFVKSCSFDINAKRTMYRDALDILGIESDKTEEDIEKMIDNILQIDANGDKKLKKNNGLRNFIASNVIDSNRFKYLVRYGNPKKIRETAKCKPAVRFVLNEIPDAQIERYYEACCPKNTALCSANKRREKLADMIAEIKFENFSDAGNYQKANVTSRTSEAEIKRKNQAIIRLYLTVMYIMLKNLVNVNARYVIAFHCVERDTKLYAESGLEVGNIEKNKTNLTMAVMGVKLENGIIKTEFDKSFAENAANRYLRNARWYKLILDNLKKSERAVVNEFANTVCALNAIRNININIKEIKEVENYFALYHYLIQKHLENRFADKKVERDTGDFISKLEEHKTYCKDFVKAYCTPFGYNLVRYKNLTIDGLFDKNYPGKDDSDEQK
Test: crRNA (strand 1, pre-loaded); Mg2+; 40 mM Tris-HCl pH 7.5, 150 mM NaCl, 6 mM MgCl2, 1 mM DTT, 0.1% Tween-20, 0.2 mg/ml BSA; 25 C; 10 min per concentration, then washed
Settings: tags: His6-TwinStrep-SUMO cleaved; N-terminal SNAP kept (SNAP-Surface 488); label: 3' end held by stalled T7 RNA polymerase

| Binder | Kd |
| --- | --- |
| B1 | 10 ± 0.7 nM |
| B2 | 65 ± 18 nM |
| B3 | 15 ± 0.9 nM |
| B4 | 10.2 ± 0.8 nM |
| B5 | 42 ± 5 nM |
| B6 | 16.2 ± 0.6 nM |
| B7 | 58 ± 6 nM |
| B8 | 27.4 ± 2 nM |
| B9 | 18.6 ± 1.1 nM |
| B10 | 47.2 ± 3.4 nM |
| B11 | 68 ± 12 nM |
| B12 | 16.1 ± 1.2 nM |
| B13 | 56 ± 13 nM |
| B14 | 14.3 ± 1.1 nM |
| B15 | 15.7 ± 1.3 nM |
| B16 | 91 ± 17 nM |
| B17 | 23 ± 4 nM |

| Binder | Kd |
| --- | --- |
| B18 | 29.6 ± 2.6 nM |
| B19 | 42 ± 7 nM |
| B20 | 9.7 ± 0.5 nM |
| B21 | 9.7 ± 0.4 nM |
| B22 | 30.6 ± 3.2 nM |
| B23 | 8.1 ± 0.4 nM |
| B24 | 68 ± 15 nM |
| B25 | 5.2 ± 0.4 nM |
| B26 | 54 ± 12 nM |
| B27 | 52 ± 6 nM |
| B28 | 4.86 ± 0.17 nM |
| B29 | ~70 nM |
| B30 | 9 ± 1 nM |
| B31 | 74 ± 16 nM |
| B32 | 92 ± 24 nM |
| B33 | 19.8 ± 1.2 nM |
